The record followed here is patent publication US12458691.

For assay [1], the target named is FP8-KLH (HIV-1 strain BG505). The assay can be described thus: BLI (Octet), IgG on the sensor, apparent KD with IgG avidity.
Assay [2] deals with FP8-3HSH (HIV-1 strain BG505). The assay is described as above.
For assay [3], the target named is FP8-1Y12 (HIV-1 strain BG505). Described as above.
Assay [4] has as its target FP-LS (Aquifex aeolicus (strain VF5)) (UniProt O66529). Description: apparent KD (table head 'Apparent KD value (nM)'); Octet BLI with IgG on the sensor per paragraph 361. (Biolayer interferometry detects binding as a change in optical thickness at a sensor tip.)
Assay [5] concerns the target FP8-3HSH (HIV-1 strain BG505). The assay can be described thus: apparent KD; Octet BLI, antibody IgG on sensor (method per paragraph 361).
In assay [6] the target is FP8-1Y12 (HIV-1 strain BG505). Described as above.
The target of assay [7] is FP8-TTHc (MBS activation, 1:1 molar ratio) (HIV-1 strain BG505). Description: Octet, purified conjugate.
FP8-TTHc (MBS activation, 1:1 molar ratio) (HIV-1 strain BG505), sequence (P04958 865-1315, tags left off): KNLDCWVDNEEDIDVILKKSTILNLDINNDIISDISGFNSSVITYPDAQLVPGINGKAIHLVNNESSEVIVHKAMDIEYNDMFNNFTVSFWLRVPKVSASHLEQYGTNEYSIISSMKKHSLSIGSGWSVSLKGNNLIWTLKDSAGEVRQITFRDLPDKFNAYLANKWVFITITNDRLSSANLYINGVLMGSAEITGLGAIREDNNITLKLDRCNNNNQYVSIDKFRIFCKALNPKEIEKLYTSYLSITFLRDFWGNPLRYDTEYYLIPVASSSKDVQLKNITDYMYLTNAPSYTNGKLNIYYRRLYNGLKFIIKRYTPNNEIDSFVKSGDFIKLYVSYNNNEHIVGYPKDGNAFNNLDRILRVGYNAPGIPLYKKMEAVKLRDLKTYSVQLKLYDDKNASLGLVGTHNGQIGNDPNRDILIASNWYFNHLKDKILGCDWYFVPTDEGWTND
For assay [8], the target named is FP8-TTHc (sulfo-SIAB activation, 1:1 molar ratio) (HIV-1 strain BG505). The assay can be described thus: Octet, purified conjugate.
FP8-TTHc (sulfo-SIAB activation, 1:1 molar ratio) (HIV-1 strain BG505), sequence (P04958 865-1315, tags left off): as above
For assay [9], the target named is FP8-TTHc (sulfo-SIAB activation, 0.5:1 molar ratio) (HIV-1 strain BG505). The assay can be described thus: Octet, purified conjugate.
FP8-TTHc (sulfo-SIAB activation, 0.5:1 molar ratio) (HIV-1 strain BG505), sequence (P04958 865-1315, tags left off): as above
Assay [10] has as its target His-tagged fusion peptide (residue 512-521) (HIV-1 strain BG505). Description: SPR, Fab over His-tagged fusion peptide on Ni-NTA chip, 1:1 fit. For orientation: Surface plasmon resonance follows binding to a sensor surface in real time, without labels.

By koff is commonly meant the first-order rate constant of dissociation. For orientation: kon means a measure of how fast the partners come together. A low value points to slow association.

Some results are limits rather than exact numbers.

FP8-KLH (HIV-1 strain BG505), sequence (Q10583 17-3414): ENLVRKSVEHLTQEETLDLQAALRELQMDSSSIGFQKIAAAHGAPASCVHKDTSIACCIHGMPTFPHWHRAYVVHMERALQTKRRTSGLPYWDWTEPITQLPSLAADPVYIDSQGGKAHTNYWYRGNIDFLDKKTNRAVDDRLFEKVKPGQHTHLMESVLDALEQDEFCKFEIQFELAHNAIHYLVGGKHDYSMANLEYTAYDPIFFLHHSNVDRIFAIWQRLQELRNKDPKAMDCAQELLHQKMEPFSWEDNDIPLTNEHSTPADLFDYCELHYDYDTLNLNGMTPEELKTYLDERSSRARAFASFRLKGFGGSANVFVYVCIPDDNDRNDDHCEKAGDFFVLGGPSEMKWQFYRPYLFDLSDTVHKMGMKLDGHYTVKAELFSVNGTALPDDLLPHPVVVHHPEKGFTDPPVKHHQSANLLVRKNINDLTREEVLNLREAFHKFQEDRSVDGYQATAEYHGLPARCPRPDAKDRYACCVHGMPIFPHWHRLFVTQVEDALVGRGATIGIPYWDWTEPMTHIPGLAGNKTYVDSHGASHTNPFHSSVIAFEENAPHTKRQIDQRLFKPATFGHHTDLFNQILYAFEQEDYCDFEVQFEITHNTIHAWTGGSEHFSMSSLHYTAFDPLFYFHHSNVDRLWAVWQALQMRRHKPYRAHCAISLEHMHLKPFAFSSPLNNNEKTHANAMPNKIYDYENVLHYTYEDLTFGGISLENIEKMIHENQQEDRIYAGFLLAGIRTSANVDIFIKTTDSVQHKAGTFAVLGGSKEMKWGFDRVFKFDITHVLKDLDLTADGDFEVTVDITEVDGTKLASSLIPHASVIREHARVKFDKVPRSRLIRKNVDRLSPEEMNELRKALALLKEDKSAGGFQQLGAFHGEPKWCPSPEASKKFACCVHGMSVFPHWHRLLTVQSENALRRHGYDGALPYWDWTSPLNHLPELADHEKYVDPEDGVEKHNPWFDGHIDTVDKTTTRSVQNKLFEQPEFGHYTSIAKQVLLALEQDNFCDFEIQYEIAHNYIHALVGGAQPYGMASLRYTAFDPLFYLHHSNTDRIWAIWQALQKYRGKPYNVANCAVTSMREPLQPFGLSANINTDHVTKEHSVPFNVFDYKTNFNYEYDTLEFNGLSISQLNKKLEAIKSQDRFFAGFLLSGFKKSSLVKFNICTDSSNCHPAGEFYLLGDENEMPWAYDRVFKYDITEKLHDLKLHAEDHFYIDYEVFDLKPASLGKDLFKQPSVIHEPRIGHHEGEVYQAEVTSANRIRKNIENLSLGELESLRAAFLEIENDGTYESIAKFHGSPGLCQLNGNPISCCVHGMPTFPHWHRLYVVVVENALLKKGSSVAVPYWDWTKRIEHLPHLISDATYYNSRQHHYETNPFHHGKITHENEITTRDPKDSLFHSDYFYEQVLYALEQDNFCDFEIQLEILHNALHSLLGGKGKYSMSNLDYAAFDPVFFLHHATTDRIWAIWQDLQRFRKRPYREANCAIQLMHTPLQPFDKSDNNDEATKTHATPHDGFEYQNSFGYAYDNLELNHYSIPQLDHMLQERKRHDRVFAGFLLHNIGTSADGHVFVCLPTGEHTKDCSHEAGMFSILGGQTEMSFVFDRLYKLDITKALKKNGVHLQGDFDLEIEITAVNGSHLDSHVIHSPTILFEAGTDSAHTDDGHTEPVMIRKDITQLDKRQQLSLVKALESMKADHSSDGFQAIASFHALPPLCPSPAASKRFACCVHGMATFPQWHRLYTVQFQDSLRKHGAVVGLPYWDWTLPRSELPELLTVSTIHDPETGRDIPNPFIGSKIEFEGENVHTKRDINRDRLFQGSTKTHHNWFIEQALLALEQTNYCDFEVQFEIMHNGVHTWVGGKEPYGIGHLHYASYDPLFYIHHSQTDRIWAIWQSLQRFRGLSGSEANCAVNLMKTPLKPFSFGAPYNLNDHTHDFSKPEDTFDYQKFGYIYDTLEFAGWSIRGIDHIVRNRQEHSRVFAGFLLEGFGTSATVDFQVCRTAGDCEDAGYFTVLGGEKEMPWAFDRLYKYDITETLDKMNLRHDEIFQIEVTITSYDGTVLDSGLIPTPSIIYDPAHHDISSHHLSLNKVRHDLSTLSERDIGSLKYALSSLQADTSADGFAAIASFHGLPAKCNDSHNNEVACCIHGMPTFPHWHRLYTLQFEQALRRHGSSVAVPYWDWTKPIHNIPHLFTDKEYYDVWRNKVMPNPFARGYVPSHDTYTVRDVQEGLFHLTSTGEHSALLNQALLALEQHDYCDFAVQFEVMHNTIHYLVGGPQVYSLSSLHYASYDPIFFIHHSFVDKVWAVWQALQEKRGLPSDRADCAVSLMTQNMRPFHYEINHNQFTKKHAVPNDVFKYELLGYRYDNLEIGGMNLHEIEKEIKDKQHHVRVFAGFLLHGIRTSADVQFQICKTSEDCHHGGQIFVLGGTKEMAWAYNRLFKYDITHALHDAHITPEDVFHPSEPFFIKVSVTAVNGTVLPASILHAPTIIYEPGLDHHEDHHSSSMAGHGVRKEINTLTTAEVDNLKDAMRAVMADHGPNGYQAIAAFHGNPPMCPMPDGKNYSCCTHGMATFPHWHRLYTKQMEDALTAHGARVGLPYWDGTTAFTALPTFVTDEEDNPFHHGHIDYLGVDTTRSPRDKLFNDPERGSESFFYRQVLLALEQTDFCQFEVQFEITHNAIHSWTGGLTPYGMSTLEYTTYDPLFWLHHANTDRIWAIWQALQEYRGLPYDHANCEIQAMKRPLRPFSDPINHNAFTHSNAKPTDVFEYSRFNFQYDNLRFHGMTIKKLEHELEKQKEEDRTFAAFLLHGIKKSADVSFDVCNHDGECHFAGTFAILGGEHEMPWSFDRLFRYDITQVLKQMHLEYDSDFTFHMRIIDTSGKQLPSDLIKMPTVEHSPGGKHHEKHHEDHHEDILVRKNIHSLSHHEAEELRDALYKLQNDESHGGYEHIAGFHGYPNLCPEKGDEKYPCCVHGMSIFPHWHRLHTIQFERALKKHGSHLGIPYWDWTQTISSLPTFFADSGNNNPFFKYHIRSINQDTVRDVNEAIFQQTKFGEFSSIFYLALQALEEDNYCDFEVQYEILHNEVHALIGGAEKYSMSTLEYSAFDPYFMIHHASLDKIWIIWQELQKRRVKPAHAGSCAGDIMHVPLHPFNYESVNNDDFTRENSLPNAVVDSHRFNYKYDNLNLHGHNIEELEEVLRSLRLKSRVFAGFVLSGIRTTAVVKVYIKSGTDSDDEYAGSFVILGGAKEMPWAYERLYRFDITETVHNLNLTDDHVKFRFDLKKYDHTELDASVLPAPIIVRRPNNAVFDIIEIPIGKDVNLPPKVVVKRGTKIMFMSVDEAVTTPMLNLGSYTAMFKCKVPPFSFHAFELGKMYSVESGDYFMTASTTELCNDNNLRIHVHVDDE
FP-LS (Aquifex aeolicus (strain VF5)), sequence (O66529 other isoform, or with tags, fused parts or gaps): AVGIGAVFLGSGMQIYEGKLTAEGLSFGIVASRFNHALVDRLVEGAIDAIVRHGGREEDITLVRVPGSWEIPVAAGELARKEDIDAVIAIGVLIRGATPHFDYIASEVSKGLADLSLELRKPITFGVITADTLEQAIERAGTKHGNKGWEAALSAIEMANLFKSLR

ACS202 (antibody): in assay [1], the Kd was below 0.001 nM.
For PGT151 (antibody), the Kd is 47.2 nM in assay [2]; below 0.001 nM in assay [3]; below 0.001 nM in [4]; below 0.001 nM in assay [5]; below 0.001 nM in assay [6]; 2.3 nM in assay [7]. The Kd is 2.8 nM in assay [8] and 3.6 nM in [9].
In assay [10], VRC34.01 Fab gave a Kd of 6.17 nM, a koff of 0.00924 s⁻¹ and an on-rate constant (kon) of 1.5e+06 M⁻¹ s⁻¹.
